This is an account of results in paper PMC2723105, “DNA binding by Corynebacterium glutamicum TetR-type transcription regulator AmtR”.

Series [1] concerns the target T1, AmtR-MBP wild type (Corynebacterium glutamicum ATCC13032) (UniProt H7C699).
T1 sequence: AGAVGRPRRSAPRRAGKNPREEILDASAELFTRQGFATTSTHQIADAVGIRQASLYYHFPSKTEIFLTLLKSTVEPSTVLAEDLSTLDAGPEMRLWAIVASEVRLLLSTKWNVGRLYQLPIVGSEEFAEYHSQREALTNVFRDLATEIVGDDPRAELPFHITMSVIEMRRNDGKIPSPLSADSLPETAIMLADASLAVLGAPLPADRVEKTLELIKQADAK
Description: EMSA. To be noted: EMSA: DIG gel shift kit (Roche) conditions, 0.04 ng DNA, native 6% PAGE in 0.5x TBE; SPR: HBS-EP running buffer, 25 °C, BIAcoreX, nonspecific 30-mer DNA in the …. For orientation: Mobility shift assays separate free from complexed probe on a gel.

The target of series [2] is T2, AmtR-MBP wild type (Corynebacterium glutamicum ATCC13032, UniProt H7C699 2-222).
T2 sequence: T1 sequence
Description: EMSA. The note with it: EMSA: DIG gel shift kit (Roche) conditions, 0.04 ng DNA, native 6% PAGE in 0.5x TBE; SPR: HBS-EP running buffer, 25 °C, BIAcoreX, nonspecific 30-mer DNA in the ….

Series [3] deals with T2, AmtR-MBP wild type. Description: SPR; EMSA: DIG gel shift kit (Roche) conditions, 0.04 ng DNA, native 6% PAGE in 0.5x TBE; SPR: HBS-EP running buffer, 25 °C, BIAcoreX, nonspecific 30-mer DNA in the. To be noted: protein: recombinant; tags: N-terminal MBP (pMalc2); chain copies: 2; label: 3' biotin on forward strand; blunt. (Surface plasmon resonance follows binding to a sensor surface in real time, without labels.)

“GCCCGTGGTGTGCTCACCAATGATGAAGTCGACGCGCTGACACAGGTGTGGACTTCCGCACTGAGCTTGCAGTCGAAACGTTGGATGGATCACATCCATGATCAAGAAACCACCGCTTGGGAGCTTCCCGCGCTGCAACGTGCCACTTTTGGCGCATCGGCTCGGTTGCTTTCTGAGGTGTTGCGGTCCGTTGAAGCCCGTGAAATCGATACCATAATAGGAACTCTG (double strand) [amtR upstream DNA, additional spacing nucleotide]”: the binding result in series [1] was “binds”.

For the molecule “GCTGGGCTAGAAACCCGATAAGCGAGAACCACCTGTCGGATGTTGTCTGGCAGGTGGTTTTCTTTTGCCTGGGTACCACCAAAAAGCAGCTGTGATGCACTTAACAATTCATTAAATTACCTGTTAAACTATAGAAAATATCCAAAACCCTCCAAAACCTATTCTATAGATCTATTGAAATTAGTTTCTGTAGGTCTATAGTTAGAGCTGGTTCAAGGGGTGTCAATCCCAAAAGGCACTCCTTGAACTCATGAAAAAGCTTGACAAAACTTCAACGTCAAAGGAGGTCATCCACGC (double strand) [amtB promoter PCR fragment]”, in series [1], the Kd (usually a measure of binding affinity in units of concentration) was 2.4 µM.

With amtB promoter PCR fragment, the dissociation constant Kd in the series with AmtR-MBP wild type [2] came to 2.4 µM.

B1: amtBp SPR 30-mer (dsDNA)
DNA 1: TAAATTACCTGTTAAACTATAGAAAATATC
DNA 2: GATATTTTCTATAGTTTAACAGGTAATTTA
As to B1, in the series with AmtR-MBP wild type [3], the binding result was “binds”.
